Test results taken from publication PMC10415144, “Structural insights into CodY activation and DNA recognition”.

Legend:
SaCodY [1] = biological target: T1, SaCodY (Staphylococcus aureus, UniProt Q2FHI3 1-257); experiment: BLI; 1 uM SaCodY; Ile + GTP (implied); BLI: 20 mM Tris-HCl pH 8, 150 mM NaCl, 2 mM MgCl2, 0.1% NP-40, 25 C; 2 mM GTP and/or 10 mM Ile/Leu/Val as stated; conditions: protein: recombinant; tags: His6 removed by TEV; N-terminal Gly-Ala remnant; chain copies: 4; label: 5'-biotin on one strand; 3-nt overhang at biotinylated 5' end
T1 sequence: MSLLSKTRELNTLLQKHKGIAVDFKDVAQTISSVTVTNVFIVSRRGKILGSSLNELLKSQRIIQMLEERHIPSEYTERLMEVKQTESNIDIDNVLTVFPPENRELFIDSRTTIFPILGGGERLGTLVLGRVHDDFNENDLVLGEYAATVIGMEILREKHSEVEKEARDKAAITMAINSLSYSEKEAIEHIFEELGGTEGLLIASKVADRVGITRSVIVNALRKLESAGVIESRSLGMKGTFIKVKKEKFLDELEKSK

SaCodY [2] = biological target: T1, SaCodY; experiment: X-ray crystallography; Ile + GTP; two dimers per duplex; BLI: 20 mM Tris-HCl pH 8, 150 mM NaCl, 2 mM MgCl2, 0.1% NP-40, 25 C; 2 mM GTP and/or 10 mM Ile/Leu/Val as stated; conditions: protein: recombinant; tags: His6 removed by TEV; N-terminal Gly-Ala remnant; chain copies: 4; blunt
EfCodY [3] = biological target: T2, EfCodY (Enterococcus faecalis, UniProt Q834K5 1-260); experiment: X-ray crystallography; Leu (bound in dimer 1 only); two dimers per duplex; BLI: 20 mM Tris-HCl pH 8, 150 mM NaCl, 2 mM MgCl2, 0.1% NP-40, 25 C; 2 mM GTP and/or 10 mM Ile/Leu/Val as stated; conditions: protein: recombinant; tags: His6 removed by TEV; N-terminal Gly-Ala remnant; chain copies: 4; blunt
T2 sequence: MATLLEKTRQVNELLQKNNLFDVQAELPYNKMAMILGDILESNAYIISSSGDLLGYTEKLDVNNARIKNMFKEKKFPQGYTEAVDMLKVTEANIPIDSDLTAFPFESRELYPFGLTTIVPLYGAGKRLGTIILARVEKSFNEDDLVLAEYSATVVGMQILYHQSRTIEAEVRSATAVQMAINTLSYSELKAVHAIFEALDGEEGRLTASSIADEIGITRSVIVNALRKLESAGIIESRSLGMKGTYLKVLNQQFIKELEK

EfCodY [4] = biological target: T2, EfCodY; experiment: BLI; 1 uM protein; 10 mM Leu; BLI: 20 mM Tris-HCl pH 8, 150 mM NaCl, 2 mM MgCl2, 0.1% NP-40, 25 C; 2 mM GTP and/or 10 mM Ile/Leu/Val as stated; conditions: protein: recombinant; tags: His6 removed by TEV; N-terminal Gly-Ala remnant; chain copies: 4; label: 5'-biotin on one strand; 3-nt overhang at biotinylated 5' end
SaCodY [5] = biological target: T1, SaCodY; experiment: BLI; 1 uM protein; 10 mM Ile + 2 mM GTP; BLI: 20 mM Tris-HCl pH 8, 150 mM NaCl, 2 mM MgCl2, 0.1% NP-40, 25 C; 2 mM GTP and/or 10 mM Ile/Leu/Val as stated; conditions: protein: recombinant; tags: His6 removed by TEV; N-terminal Gly-Ala remnant; chain copies: 4; label: 5'-biotin on one strand; 3-nt overhang at biotinylated 5' end
EfCodY quadruple mutant = EfCodY quadruple mutant (Enterococcus faecalis, UniProt Q834K5 1-260, Y186A;R238A;L240A;Y246A); experiment: BLI; 8 uM protein, 10 mM Leu; BLI: 20 mM Tris-HCl pH 8, 150 mM NaCl, 2 mM MgCl2, 0.1% NP-40, 25 C; 2 mM GTP and/or 10 mM Ile/Leu/Val as stated; conditions: protein: recombinant; tags: His6 removed by TEV; N-terminal Gly-Ala remnant; chain copies: 2; label: 5'-biotin on one strand; 3-nt overhang at biotinylated 5' end
SaCodY [6] = biological target: T1, SaCodY; experiment: BLI; Ile + GTP (implied); BLI: 20 mM Tris-HCl pH 8, 150 mM NaCl, 2 mM MgCl2, 0.1% NP-40, 25 C; 2 mM GTP and/or 10 mM Ile/Leu/Val as stated; conditions: protein: recombinant; tags: His6 removed by TEV; N-terminal Gly-Ala remnant; chain copies: 4; label: 5'-biotin on one strand; 3-nt overhang at biotinylated 5' end
EfCodY [7] = biological target: T2, EfCodY; experiment: BLI; 10 mM Leu; BLI: 20 mM Tris-HCl pH 8, 150 mM NaCl, 2 mM MgCl2, 0.1% NP-40, 25 C; 2 mM GTP and/or 10 mM Ile/Leu/Val as stated; conditions: protein: recombinant; tags: His6 removed by TEV; N-terminal Gly-Ala remnant; chain copies: 4; label: 5'-biotin on one strand; 3-nt overhang at biotinylated 5' end

B1: hutP2 single site (dsDNA)
DNA 1: AGTTCAGAATTTTTAGGAATTGAGTG
DNA 2: CACTCAATTCCTAAAAATTCTGAACT
Question: Does B1 bind (SaCodY [1])?
Answer: Result: no binding

B2: 30-bp crystallization DNA (dsDNA)
DNA 1: GATAATTTTCAGAATTTTCAGAAAATTTAG
DNA 2: CTAAATTTTCTGAAAATTCTGAAAATTATC
Question: Does B2 bind (SaCodY [2])?
Answer: Result: binds

Question: Does B2 bind (EfCodY [3])?
Answer: Result: binds

B3: consensus T>G (dsDNA)
DNA 1: CCGCCGGATAATTTGCAGCATTTGCAGCAAATTTAGCCG
DNA 2: CGGCTAAATTTGCTGCAAATGCTGCAAATTATCCGGCGG
Question: Does B3 bind (EfCodY [4])?
Answer: Result: no binding

Question: Does B3 bind (SaCodY [5])?
Answer: Result: no binding

B4: 24-nt sequence-optimized overlapping sites (consensus) (dsDNA)
DNA 1: CCGCCGGATAATTTTCAGAATTTTCAGAAAATTTAGCCG
DNA 2: CGGCTAAATTTTCTGAAAATTCTGAAAATTATCCGGCGG
Question: Does B4 bind (EfCodY quadruple mutant)?
Answer: Result: no binding

B5: hutP1 single site (dsDNA)
DNA 1: AGTTAATAGTTATCAGAATTTTTAGG
DNA 2: CCTAAAAATTCTGATAACTATTAACT
Question: B5 was tested. Which Kd (SaCodY [6]) did it give?
Answer: Its Kd is 1230 nM.

B6: hutP operator overlapping sites (dsDNA)
DNA 1: AGTTAATAGTTATCAGAATTTTTAGGAATTGAGTG
DNA 2: CACTCAATTCCTAAAAATTCTGATAACTATTAACT
Question: With B6 as the binder, how does the Kd (SaCodY [6]) read?
Answer: The Kd was 598 nM.

Question: Does B6 bind (EfCodY [7])?
Answer: Result: binds
